The target of the test is human BKCa (Slo1) RCK1 domain (322IIE...HDP667) carrying the D362A/367A mutations (human). The test is described as follows: SEC. A general note: In gel filtration, larger molecules generally elute earlier.

We go through one substance from article PMC2912072.

For the substance “human BKCa (Slo1) RCK1 domain (322IIE...HDP667) carrying the D362A/367A mutations (domain or fragment)”, the stoichiometry N was more than 16.

In general, stoichiometry N refers to the number of molecules, sites or subunits per partner or assembly.
